In patent US20040247566A1:

Biological target: human IL-9 receptor (human) (UniProt Q01113)
Test: cell-based or functional assay

Sequence of UniProt Q01113 (Q01113 41-521, chain 1 of 2): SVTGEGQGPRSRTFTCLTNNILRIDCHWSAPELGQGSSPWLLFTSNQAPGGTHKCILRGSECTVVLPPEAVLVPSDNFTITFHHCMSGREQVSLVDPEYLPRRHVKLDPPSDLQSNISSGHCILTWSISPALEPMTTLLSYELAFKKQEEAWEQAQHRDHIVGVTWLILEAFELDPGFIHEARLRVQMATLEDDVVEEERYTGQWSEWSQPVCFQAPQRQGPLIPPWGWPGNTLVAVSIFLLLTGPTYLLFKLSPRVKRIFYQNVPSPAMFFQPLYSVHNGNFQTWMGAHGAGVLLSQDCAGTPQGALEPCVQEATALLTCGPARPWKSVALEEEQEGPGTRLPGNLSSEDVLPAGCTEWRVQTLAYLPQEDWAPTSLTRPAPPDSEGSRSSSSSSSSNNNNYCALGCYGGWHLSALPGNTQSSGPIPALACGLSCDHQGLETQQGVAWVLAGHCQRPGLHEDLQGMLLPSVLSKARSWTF
Sequence of UniProt Q01113 (P31785 23-369, chain 2 of 2, further chain): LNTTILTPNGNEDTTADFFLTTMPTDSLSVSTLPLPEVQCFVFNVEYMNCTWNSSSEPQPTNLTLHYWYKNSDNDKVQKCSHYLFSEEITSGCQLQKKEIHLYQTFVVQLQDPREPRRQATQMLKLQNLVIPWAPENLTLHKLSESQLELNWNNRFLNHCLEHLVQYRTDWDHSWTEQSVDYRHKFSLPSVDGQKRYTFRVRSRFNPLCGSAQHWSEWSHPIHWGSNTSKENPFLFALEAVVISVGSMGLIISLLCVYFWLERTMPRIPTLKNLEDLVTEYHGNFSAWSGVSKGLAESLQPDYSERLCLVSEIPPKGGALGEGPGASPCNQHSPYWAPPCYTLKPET

| Substance | IC50, antagonism of IL-9-mediated eosinophil survival (7.14 nM wild-type IL-9) [nM] | IC50, antagonism of IL-9 mediated Mo7e proliferation (0.357 nM wild-type IL-9) [nM] |
| --- | --- | --- |
| Amino-terminal Fc-fusion construct of the K126E/Q133K IL-9 mutein (Fc fusion) | 25.5 | 1.15 |
| Carboxy-terminal Fc-fusion construct of the K126E/Q133K IL-9 mutein (Fc fusion) | 4.92 | 0.66 |
